For assay [1], the target named is T1, recombinant human HER2 (extracellular domain)-Fc fusion protein (human, UniProt P04626 23-652).
T1 construct: extracellular domain; Bought reagent; also called HER2-ECD-Fc; HER-extracellular domain (ECD)-Fc fusion; not shown: immunoglobulin Fc fragment of the bought fusion protein
Put plainly: SPR, antibody injected over immobilized HER2-ECD-Fc, apparent equilibrium dissociation constant, pH 7.0.

Assay [2] concerns the target T1, recombinant human HER2 (extracellular …). Kind of assay: SPR (BIAcore T200), antibody injected over immobilized HER2-ECD-Fc, pH 5.8, apparent KD (FIG. 4B); pH 5.8.
Assay [3] has the same target. Kind of assay: SPR, antibody injected over immobilized HER2-ECD-Fc, apparent equilibrium dissociation constant, pH 7.4. In general terms: In SPR one partner is held on a chip, and binding of the other changes the refractive index at the surface.
Assay [4] has the same target. Kind of assay: SPR, antibody injected over immobilized HER2-ECD-Fc, apparent equilibrium dissociation constant, pH 6.5.
Assay [5] shares this target. Kind of assay: SPR, antibody injected over immobilized HER2-ECD-Fc, apparent equilibrium dissociation constant, pH 5.8.

B1: YS mutant of pertuzumab (Tyr55 to histidine in the light chain variable domain and Ser103 to histidine in the heavy chain variable domain) (antibody, human IgG1, V domains shown)
VH: QVQLQESGGGLVQPGGSLRLSCAASGFTFTDYTMDWVRQAPGKGLEWVADVNPNSGGSIYNQRFKGRFTLSVDRSKNTLYLQMNSLRAEDTAVYYCARNLGPHFYFDYWGQGTLVTVSS
VL: DIELTQSPSSLSASVGDRVTITCKASQDVSIGVAWYQQKPGKAPKLLIYSASYRHTGVPSRFSGSGSGTDFTLTISSLQPEDFATYYCQQYYIYPYTFGQGTKLEIKR
notes: Tested without conjugated drug in the SPR assay; also called YS variant of pertuzumab
As to B1, the Kd was 22.1 nM in assay [1]; more than 1500 nM in assay [2]; 6.3 nM in assay [3]; 67.9 nM in assay [4]; 1630 nM in assay [5].
